This is an account of results in patent US8088892B2, “Inhibitors of proteins from the Rho-GEF family” (Centre National de la Recherche Scientifique (C.N.R.S.), priority 2002, dated 2012).

B1: TRIAPα 9-34: variant of TRIAPα containing TRIPα 9-34 (SEQ ID NO: 14) inserted into the thioredoxin (protein)
chain: MSDKIIHLTDDSFDTDVLKADGAILVDFWAEWCGPICGYNLATLVMLGPSERVFCPLCEPCGPCKMIAPILDEIADEYQGKLTVAKLNIDQNPGTAPKYGIRGIPTLLLFKNGEVASATKVGALSKGQLKEFLDANLA
B2: TRIAPα 9-40: variant of TRIAPα containing TRIPα 9-40 (SEQ ID NO: 8) inserted into the thioredoxin (protein)
chain: MSDKIIHLTDDSFDTDVLKADGAILVDFWAEWCGPICGYNLATLVMLGPSERVFCPLCEPCSSDIYEGPCKMIAPILDEIADEYQGKLTVAKLNIDQNPGTAPKYGIRGIPTLLLFKNGEVASATKVGALSKGQLKEFLDANLA
B3: TRIAPα 1-33: variant of TRIAPα containing TRIPα 1-33 (SEQ ID NO: 18) inserted into the thioredoxin (protein)
chain: MSDKIIHLTDDSFDTDVLKADGAILVDFWAEWCGPAREGADGAICGYNLATLVMLGPSERVFCPLCEPGPCKMIAPILDEIADEYQGKLTVAKLNIDQNPGTAPKYGIRGIPTLLLFKNGEVASATKVGALSKGQLKEFLDANLA
B4: TRIAPα 9-42: variant of TRIAPα containing TRIPα 9-42 (SEQ ID NO: 6) inserted into the thioredoxin (protein)
chain: MSDKIIHLTDDSFDTDVLKADGAILVDFWAEWCGPICGYNLATLVMLGPSERVFCPLCEPCSSDIYELMGPCKMIAPILDEIADEYQGKLTVAKLNIDQNPGTAPKYGIRGIPTLLLFKNGEVASATKVGALSKGQLKEFLDANLA
B5: TRIAPα 9-33: variant of TRIAPα containing TRIPα 9-33 (SEQ ID NO: 16) inserted into the thioredoxin (protein)
chain: MSDKIIHLTDDSFDTDVLKADGAILVDFWAEWCGPICGYNLATLVMLGPSERVFCPLCEPGPCKMIAPILDEIADEYQGKLTVAKLNIDQNPGTAPKYGIRGIPTLLLFKNGEVASATKVGALSKGQLKEFLDANLA
B6: TRIAPα 9-38: variant of TRIAPα containing TRIPα 9-38 (SEQ ID NO: 10) inserted into the thioredoxin (protein)
chain: MSDKIIHLTDDSFDTDVLKADGAILVDFWAEWCGPICGYNLATLVMLGPSERVFCPLCEPCSSDIGPCKMIAPILDEIADEYQGKLTVAKLNIDQNPGTAPKYGIRGIPTLLLFKNGEVASATKVGALSKGQLKEFLDANLA
B7: TRIAPα 9-36: variant of TRIAPα containing TRIPα 9-36 (SEQ ID NO: 12) inserted into the thioredoxin (protein)
chain: MSDKIIHLTDDSFDTDVLKADGAILVDFWAEWCGPICGYNLATLVMLGPSERVFCPLCEPCSSGPCKMIAPILDEIADEYQGKLTVAKLNIDQNPGTAPKYGIRGIPTLLLFKNGEVASATKVGALSKGQLKEFLDANLA

The target of this assay is TrioGEFD2 (Homo sapiens, UniProt O75962). The assay is described as follows: In vitro guanine nucleotide exchange (GEF) assay on RhoA. It counts as biochemical. The following applies: 20-fold molar excess (8 μM) inhibitor, 0.4 μM GST-GEFD2, 0.3 μM [3H]GDP-RhoA, 15 min. Also noted: using recombinant GST-TrioGEFD2 (a.a. 1848-2298), TrioDH2 (a.a. 1848-2096); made in house. The procedure:
For that purpose, aptamers, TrioGEFD2 and RhoA are expressed as GST-fusion proteins. RhoA is loaded with ^3H-GDP, and the release of GDP is followed after addition of GEFD2 in presence or in absence of the selected aptamers (as described in Debant et al., 1996).
A 20-fold molar excess (8 μM) of GST-aptamers TRIAPα, TRIAPβ (another TrioGEFD2 binding aptamer), TRIAPγ (another TrioGEFD2 binding aptamer) or the empty thioredoxine (Trx) were pre-incubated with 0.4 μM GST-GEFD2 (left side of FIG. 2A) or 0.4 μM GST-DH2 (right side of FIG. 2A), as indicated, before adding 0.3 μM of [^3H]GDP loaded GST-RhoA. The exchange activity was monitored by the decrease of [^3H]GDP bound-RhoA after 15 min (see Materials and Methods). The amount of [^3H]GDP bound-RhoA incubated without GEF (first bar on the left) was defined as 100% The values and errors bars were calculated from at least three independent experiments.
0.4 μM GST-GEFD2 were incubated with increasing amounts of GST-TRIAPα (grey bars) or GST (black bars), and the exchange assay was then performed on 0.3 μM RhoA, as described in A.
An in vitro guanine nucleotide exchange (GEF) assay was used to test whether the TrioGEFD2-binding aptamers could inhibit the catalytic activity of TrioGEFD2 towards RhoA. For this purpose, the aptamers TRIAPα, TRIAPβ and TRIAPγ (including the Trx gene) were excised from pEG202 as EcoRI/NotI fragments and cloned into pGEX4T1 EcoRI/NotI. The aptamers were then expressed and purified from bacteria as GST fusion proteins, using standard procedures (Smith and Johnson, 1988). GTPase-GST fusion proteins were prepared, loaded with [^3H]GDP and the guanine nucleotide release assays were performed as described (Debant et al., 1996), using recombinant GST-TrioGEFD2 (a.a. 1848-2298), TrioDH2 (a.a. 1848-2096). For each point, 0.3 μM GTPase was mixed with or without 0.4 μM GEF in presence of non-labeled GTP, and the reaction mix was filtered after 0 min and 15 mm reaction at 25° C. The catalytic activity of TrioGEFD2 was thus measured by the decrease of the GTPase-associated radioactivity. The results are expressed as the ratio “exchange after 15 min over exchange after 0 min” (% bound [^3H]GDP-RhoA). To measure the effect of the aptamers on the exchange activity, a 20-fold molar excess of GST-TRIAPs was pre-incubated with GEFD2 (or GEFD1) for 30 min on ice before the exchange assay was carried out. For each experiment, data were obtained in triplicate.
For the molecule B1, the “Inhibition of TrioGEFD2 exchange activity on RhoA in vitro” value was “displayed fill inhibitory activity”. The same measure for B2: “displayed fill inhibitory activity”; for B3: “displayed fill inhibitory activity”; for B4: “did not alter its inhibitory effect”.

Regarding B5, the “Inhibition of TrioGEFD2 exchange activity on RhoA in vitro” value was “had a reduced activity”.

Turning to B6, the “Inhibition of TrioGEFD2 exchange activity on RhoA in vitro” value is listed as “displayed fill inhibitory activity”.

For B7, the “Inhibition of TrioGEFD2 exchange activity on RhoA in vitro” value is listed as “displayed fill inhibitory activity”.
